Residue numbers refer to the chain shown, from its start.

Common to all, as to settings: both partners purified
In assay [1] the target is T1, 6xHis-SUMO-tagged dAHR PAS-B Y305A (Drosophila melanogaster, UniProt O61543 264-381, Y305A).
T1 construct: Aryl hydrocarbon receptor homolog spineless (dAHR), Drosophila melanogaster, UniProt O61543, PAS-B domain aa 264-381; source: E. coli Rosetta (DE3), purified as the WT protein; fusion tag retained
T1 sequence (looked up): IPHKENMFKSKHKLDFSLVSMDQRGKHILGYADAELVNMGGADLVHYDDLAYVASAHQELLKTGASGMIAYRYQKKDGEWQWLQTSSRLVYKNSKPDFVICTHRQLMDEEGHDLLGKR
The assay can be described thus: ELISA; 100 nM 6xHis-SUMO-dAHR PAS-B (WT or mutants) coated on plates; GST-mARNT PAS-B 0.004-10 µM added, 1 h room temperature; anti-GST detection; four-parameter 'log(agonist) vs response' fit. (In general: ELISA stands for enzyme-linked immunosorbent assay.)

Assay [2] deals with T2, 6xHis-SUMO-tagged dAHR PAS-B Y310A (Drosophila melanogaster, UniProt O61543 264-381, Y310A).
T2 construct: Aryl hydrocarbon receptor homolog spineless (dAHR), Drosophila melanogaster, UniProt O61543, PAS-B domain aa 264-381; source: E. coli Rosetta (DE3), purified as the WT protein; fusion tag retained
T2 sequence (looked up): T1 sequence (looked up) with A42Y, Y47A
The assay is described as above.

The target in assay [3] is T3, 6xHis-SUMO-tagged dAHR PAS-B (wild type) (Drosophila melanogaster, UniProt O61543 264-381).
T3 construct: Aryl hydrocarbon receptor homolog spineless (dAHR), Drosophila melanogaster, UniProt O61543, PAS-B domain aa 264-381; The printed name '6xHis-SUMO-dAHR PAS-B' puts the tag first; the end is not otherwise stated; also called 6xHis-SUMO-dAHR PAS-B; WT protein; source: E. coli Rosetta (DE3), purified; fusion tag retained
T3 sequence (looked up): T1 sequence (looked up) with A42Y
The description is as above.

The target in assay [4] is T4, 6xHis-tagged dAHR PAS-B, Red-labeled (Drosophila melanogaster, UniProt O61543 264-381, labeled with the MO Red-Tris-NTA protein labeling kit).
T4 construct: Aryl hydrocarbon receptor homolog spineless (dAHR), Drosophila melanogaster, UniProt O61543, PAS-B domain aa 264-381; the only His-tagged dAHR PAS-B construct it describes is the 6xHis-SUMO fusion (pET-28s), so SUMO may also have been present; also called Red-labeled dAHR PAS-B; source: purified; E. coli Rosetta (DE3) is the host named for pET-28s-dAHR PAS-B
T4 sequence (looked up): T1 sequence (looked up) with A42Y
The assay is described as follows: MST; 50 nM Red-labeled 6xHis-dAHR PAS-B; mARNT PAS-B 100 µM to 3 nM; PBS, 0.05% Tween-20, 2.5% DMSO, 0.5 mM TCEP; with 1 µM αNF.

For assay [5], the target named is T4, 6xHis-tagged dAHR PAS-B, Red-labeled. The assay is described as follows: MST; 50 nM Red-labeled 6xHis-dAHR PAS-B; mARNT PAS-B 100 µM to 3 nM; PBS, 0.05% Tween-20, 2.5% DMSO, 0.5 mM TCEP; without αNF.

B1: GST-tagged mARNT PAS-B (domain or fragment)
chain: not shown
notes: Aryl hydrocarbon receptor nuclear translocator (ARNT), mouse, PAS-B domain aa 360-465; GST retained for ELISA; also called GST-fused recombinant mARNT PAS-B; source: pGEX-6P-1 construct, purified
A word on the Kd: it is the concentration at which binding is half-saturated. A lower Kd goes with a tighter complex. For the molecule B1, the Kd in assay [1] was 1800 nM; in assay [2], 500 nM; in assay [3] it was about 380 nM.

B2: mouse ARNT PAS-B domain (aa 360-465), fusion tag removed (domain or fragment)
chain: not shown
notes: Aryl hydrocarbon receptor nuclear translocator (ARNT), mouse, PAS-B domain aa 360-465; Subcloned into pET-28s 'similarly' to the AHR PAS-B domains; tag removed with ULP1; also called mARNT PAS-B
For B2, the Kd in assay [4] is about 250 nM; in assay [5] it was 300 nM.

The values above are taken from publication PMC9585082, “Structural insight into the ligand binding mechanism of aryl hydrocarbon receptor” (Nature Communications, 2022).
